{
  "source": "paper PMC5618543",
  "about": "“Differences in Sulfotyrosine Binding amongst CXCR1 and CXCR2 Chemokine Ligands” (International Journal of Molecular Sciences, 2017)",
  "key": {"[1]": {"target": "T1, CXCL8 (Homo sapiens, UniProt P10145)", "T1 sequence (P10145 23-99)": "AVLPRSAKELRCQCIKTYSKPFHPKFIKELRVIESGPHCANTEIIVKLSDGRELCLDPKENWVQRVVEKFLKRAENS", "assay": "1H-15N HSQC NMR titration ([…] sY, […]N-CXCL8)", "type": "binding"}, "[2]": {"target": "CXCR2 (Homo sapiens) (UniProt P25025)", "sequence (P25025 whole entry)": "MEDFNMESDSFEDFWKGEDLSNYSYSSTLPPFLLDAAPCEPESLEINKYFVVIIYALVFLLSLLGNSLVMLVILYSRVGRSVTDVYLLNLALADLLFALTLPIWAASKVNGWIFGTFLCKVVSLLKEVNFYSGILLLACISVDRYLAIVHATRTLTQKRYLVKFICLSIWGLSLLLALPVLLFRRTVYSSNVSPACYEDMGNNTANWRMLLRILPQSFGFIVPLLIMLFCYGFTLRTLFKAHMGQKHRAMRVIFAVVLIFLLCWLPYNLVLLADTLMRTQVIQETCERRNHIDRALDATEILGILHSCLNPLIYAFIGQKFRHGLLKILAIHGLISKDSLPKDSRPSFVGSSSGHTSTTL", "conditions": "cited from earlier work"}, "[3]": {"target": "CXCR1 (Homo sapiens) (UniProt P25024)", "sequence (P25024 whole entry)": "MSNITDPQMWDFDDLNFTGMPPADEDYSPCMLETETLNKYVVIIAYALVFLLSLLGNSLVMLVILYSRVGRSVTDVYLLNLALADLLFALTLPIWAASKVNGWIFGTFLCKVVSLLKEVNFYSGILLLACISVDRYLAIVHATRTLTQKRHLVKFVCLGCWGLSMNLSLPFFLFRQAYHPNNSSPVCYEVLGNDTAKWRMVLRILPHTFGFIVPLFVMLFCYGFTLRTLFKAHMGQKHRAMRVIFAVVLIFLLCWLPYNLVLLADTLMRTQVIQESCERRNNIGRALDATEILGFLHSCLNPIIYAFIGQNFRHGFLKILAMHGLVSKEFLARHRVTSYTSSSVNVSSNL", "conditions": "cited from earlier work"}},
  "data": [
    {"compound": "N[C@@H](Cc1ccc(OS(=O)(=O)O)cc1)C(=O)O", "note": "[sY, sulfotyrosine]", "values": [
      {"measurement": "Kd", "setting": "[1]", "result": "35200 ± 1950", "unit": "µM"}
    ]},
    {"compound": "CXCL5 (from UniProt P42830)", "values": [
      {"measurement": "Kd", "setting": "[2]", "result": 0.011, "unit": "µM"},
      {"measurement": "Kd", "setting": "[3]", "result": 0.04, "unit": "µM"}
    ]}
  ]
}
